Laboratory results from patent US10077303B2, “Anti-neurotensin antibodies and uses thereof” (INSERM (INSTITUT NATIONAL DE LA SANTÉ ET DE LA RECHERCHE …, priority 2014, dated 2018).

B1: NTSp27-7.4: NTS neutralizing monoclonal antibody from hybridoma clone 7.4; VH SEQ ID NO:1, VL SEQ ID NO:5 (antibody, V domains shown)
VH: DVKLVESGGGLVKLGGSLKLSCAASGFTFSGYYMSWVRQTPEKRLELVAAINNYGDNTNYPDTVKGRFSVSRDNAKNTLYLEMNSLKSEDTALYYCARLANYANQRGAMDYWGQGTSVTVSS
VL: DIQMTHTTSSLSASLGDRVTISCRASQDIANYLNWYQQKPDGTVTLLIYYTSRLHSGVPSRFSGSGSGTDYSLTINNLDQEDIATYFCQQGYTLPPTFGGGTKLEIK
modifications: Synthetic VH sequence; Synthetic VL sequence

Columns and labels:
[1] = test system: LNM-R cells; assay: cisplatin test, LNM-R tumor xenograft; assay type: in vivo, NMRI nu/nu mice; conditions: for day the experiment was stopped because of the large size of the tumors: control group stopped after 21
Description: (§1) FIG. 6. […] A) LNM-R or R-SI NTSR1 cells (LNM-R expressing sh-RNA for NTSR1) were injected into the left and the right flanks of the mice, respectively; Mice were treated with PBS, or 15 mg/kg NTSp27-7.4 every other day and/or with cisplatin 1 mg/kg day 1, 3, 5, 7, 15, 17, and 19. At day one, 9 and 8 mice were randomized for the size of the LNM-R tumors; reaching approximately 95 mm3 on average. Mice were treated every other day and measured every day. B) Tumor growth rate from day one generated by R-SI NTSR1 cells (right flank).
(§2) Cisplatin test, 1×10^6 LNM-R cells and 1×10^6R-SI NTSR1 were subcutaneously inoculated in NMRI nu/nu mice, LNM-R in the left flank and R-SI NTSR1 in the right flank. When tumors generated by LNM-R reached an average volume of 95 mm^3, mice were randomized in 5 groups of 8 to 10 mice. Group 1 was administered with PBS, group 2 with antibody NTSp27-7.4 (i.p. every other day, 15 mg/kg) for total of 13 times and group 3 with mouse IgG (i.p. every other day, 15 mg/kg). Group 4 was administered with PBS and cisplatin (1 mg/kg at day 1,3 5 7, 15, 17, and 19) and groups 5 with antibody NTSp27-7.4 (i.p. every other day, 15 mg/kg) and cisplatin (1 mg/kg at day 1,3 5 7, 15, 17, and 19). The volume of tumor was measured every other day.

[2] = test system: R-SI NTSR1 cells; assay: cisplatin test, R-SI NTSR1 tumor xenograft; assay type: in vivo, NMRI nu/nu mice
Description: as §1, §2

[3] = test system: A2780 cells; assay: A2780 ovarian cancer tumor xenograft, cisplatin response; assay type: in vivo, NMRI-Nude Foxn1 mice
Description: FIG. 8. […] 3 million A2780 cells were injected into mice. When tumors generated by A2780 reached an average volume of 200 mm^3, mice were randomized into 4 groups. Mice were treated with PBS, or 15 mg/kg NTSp27-7.4 every other day and/or with cisplatin 1 mg/kg day at 1, 3, 5, and 7 days. Results are the mean of 8 to 12 mice performed in two different independent experiments.
A2780 cells (3×10^6) cells were combined with […] and 50 μl […]® (a gelatinous protein mixture), then injected subcutaneously into the right hind leg of 4 week old female NMRI-Nude Foxn1 mice. Treatment started when tumors reached approximately 200 mm3. Tumor volume was calculated every two days by using the following equation: tumor volume (mm3)=4/3×π×(length/2)×(width/2)×(height/2). After treatment, the mice were sacrificed and tumors were fixed in formalin.

[4] = test system: MCF-7 cell overexpressing NTS; assay: invasion test on type I collagen of MCF-7 cells overexpressing NTS (NTS-h); assay type: cell-based; conditions: NTS-overexpressing clones vs MCF-7; EGF 100 ng/mL; 7 μg antibody
Description: The experiment was repeated twice.
(§3) The cell culture insert (8 μm, Beckton Dickinson®) was coated with type I collagen (100 μl/well, 4×10^2 μg/ml, Sigma®) at 37° C. 24 h before the assay. 1 million MCF, NTS-h, Hep 3B, HepR1a, and HepR2b cells were seeded in the insert with 250 μl of serum free medium in presence or absence of 7 μg antibodies NTSp27-7.4. Outside the insert, 750 μl medium with 10% FCS was added in the well as chemoattractant. After 48 h of incubation, the non-invading cells and collagen are removed from the upper surface of the membrane by scrubbing with a cotton swab. Invading cells (those adhering to the bottom surface of the membrane) were fixed and stained with the Kwif diff stain kit(Thermo®) and the number of stained cells were counted with an inverted microscope at 200× magnification.

[5] = test system: Hep 3B, HepR1a, and HepR2b cells; assay: collagen type 1 invasion assay of hepatocellular carcinoma cells; assay type: cell-based; conditions: Hep-R1a and Hep-R1b; 3.75 μg/ml purified antibody
Description: FIG. 3. […] A) Migration in a collagen 1 invasion assay of Hep 3B, HepR1a, and HepR2b cells. Results represent the mean±SEM of 3 experiments. Results are expressed as a % on invasive cells of control cells, Hep3B. […] B) Migration in a collagen type 1 invasion assay of Hep 3B, HepR1a, and HepR2b cells in a presence of 3.75 μg/ml of purified NTSp27-7.4 or mouse IgG. Results represent the mean±SEM of 3 experiments. Results are expressed as a % on invasive cells of respective control cells.
as §3

[6] = test system: LNM-R cells; assay: LNM-R lung cancer tumor xenograft; assay type: in vivo, NMRI nu/nu mice; conditions: 15 mg/kg i.p. every other day
Description: (§4) FIG. 4. NTSp27-7.4 inhibits experimental tumor growth generated by lung cancer cell lines. A) LNM-R or R-SI NTSR1 cells (LNM-R expressing sh-RNA for NTSR1) were injected into the left and the right flank of the mice, respectively. Here is shown an example of a mouse from each group after 15 days of treatment. B) Tumor growth generated by LNM-R cells (left flank) xenografted into nude mice and treated for 15 days with PBS, or 15 mg/kg NTSp27-7.4. At day one, 10, and 8 mice were randomized on LNM-R tumors size reaching approximately 40 mm3 for control and NTSp27-7.4 group, respectively. Mice were treated every other day and measured every day. C) Tumor growth generated by R-SI NTSR1 cells (right flank) xenografted into the same mice. D and E) Tumor growth rate from day one generated by LNM-R cells (left flank) and R-SI NTSR1 cells (right flank).
(§5) 1×10^6 LNM-R cells and 1×10^6R-SI NTSR1 were subcutaneously inoculated in NMRI nu/nu mice, LNM-R in the left flank and R-SI NTSR1 in the right flank. When tumors generated by LNM-R reached an average volume of 40 mm^3, mice were randomized in 2 groups, then administered antibody NTSpP27-7.4 (i.p. every other day, 15 mg/kg) for total 8 times. PBS was used as the vehicle control. The volume of tumor was measured daily.

[7] = test system: R-SI NTSR1 cells; assay: R-SI NTSR1 tumor xenograft (same mice, right flank); assay type: in vivo, NMRI nu/nu mice; conditions: non-expressing NTSR1 tumors, 15 mg/kg
Description: as §4, §5

[8] = test system: MDA-MB 231 cells; assay: MDA-MB 231 breast cancer tumor xenograft; assay type: in vivo, NMRI nu/nu mice; conditions: 15 mg/kg i.p. every other day
Description: (§6) FIG. 5. NTSp27-7.4 inhibits experimental tumor growth generated by breast cancer cell lines. Tumor growth generated by MDA-MB 231 cells (left flank) (A), and MDA Si2 cells (right flank) (B), and treated for 24 days with PBS, or 15 mg/kg […]. At day one, 7, and 6 mice were randomized for the size of MDA-MB231 tumors size; reaching approximately 50 mm3. Mice were treated and measured every other day.
(§7) 3×10^6 MDA-MB 231 cells and 3×10^6 MDA si2 were subcutaneously inoculated in 100 μl of […]® (a gelatinous protein mixture) the left flank and the right flank of the NMRI nu/nu mice, respectively. When tumors generated by MDA reached an average volume of 50 mm^3, mice were randomized in 2 groups, then administered antibody NTSpP27-7.4 (i.p. every other day, 15 mg/kg) for total 12 times. PBS was used as the vehicle control.

[9] = test system: MDA si2 cells; assay: MDA Si2 tumor xenograft (same mice, right flank); assay type: in vivo, NMRI nu/nu mice; conditions: MDA Si2 tumors (NTSR1-)
Description: as §6, §7

Row | Molecule | LNM-R tumor growth rate as compared to PBS treated mice ([1]; cisplatin 1 mg/kg day 1,3,5,7,15,17,19, IgG 15 mg/kg every other day) | day the experiment was stopped because of the large size of the tumors [1] | R-SI NTSR1 tumor size ([2]; cisplatin 1 mg/kg, growth ratio to D1) | A2780 tumor growth rates as compared to PBS treated mice ([3]; cisplatin 1 mg/kg at 1, 3, 5, and 7 days) | induction of invasiveness induced or not by EGF [4] | invasive rate of the cells expressing NTS and NTSR1 [5] | tumor size smaller as compared to controls ([6]; 15 days, vs PBS) | tumor growth from D1 ([6]; PBS 24.68±4.05) | tumor doubling time after 16 days of treatment ([6]; control 3.43±0.34) | size of the tumor and growth rate vs PBS [7] | MDA-MB231 tumor growth as compared to PBS treated animals ([8]; 24 days) | tumor growth rate from D1 ([8]; PBS 4.4±0.33) | tumor doubling time after 24 days of treatment ([8]; control 11.63±1) | tumor sizes, growth rate and doubling time vs PBS [9] | LNM-R tumor size ([1]; antibody 15 mg/kg every other day, with or without cisplatin 1 mg/kg) | R-SI NTSR1 tumor growth rate ([2]; combined treatment of NTSp27-7.4 with cisplatin) | A2780 tumor size ([3]; antibody 15 mg/kg every other day, with or without cisplatin 1 mg/kg, PBS 2062±371.5, p=0.054 vs PBS, p=0.0058 vs cisplatin)
1 | N.N.[Cl][Pt][Cl] [cisplatin, reference compound] | not altered | 23 days | decreased | slightly but not significantly altered |  |  |  |  |  |  |  |  |  |  |  |  | 
2 | B1 |  | 25 days |  |  | inhibited | reduced | 2.6 times | 8.22±1.84 fold | 5.11 ± 0.38 days | not different | strong reduction | 1.5±0.1 fold | 52.8 ± 17.6 days | no difference | smaller | do not change | 1280±262.0 mm^3
